For this assay, the target named is chimera of the human sst5 receptor with the carboxyl-terminal tail of the human sst2 receptor (hsst5-sst2CT) (human). The experiment in a line: radioligand binding; competition against 0.05 nM [125I-Tyr11]-SS-14 on membrane preparations (30 µg protein) of stably transfected HEK293 cells; competitor 10^-12 to 10^-6 M; 10 mM HEPES, 5 mM MgCl2, 5 µg/ml bacitracin, pH 7.5; 45 min, room temperature; vacuum filtration.

As for “Somatostatin (SS-14) (from UniProt P61278 103-116) (peptide)”, the IC50 came to 30.3 nM.

Values taken from publication PMC3383726.
